According to article PMC6888645:

Key:
[1] = molecular target: DD-N-CAP1, human CAP1 helical folded domain with the coiled coil (a.a. 1-29) replaced by the dimerization domain 2L4HC2_23 (human); experiment: AUC; sedimentation velocity (SV-AUC), 50 µM protein, 20 °C, 50,000 rpm, absorbance at 280 nm, 20 mM Tris-HCl pH 8.0, SEDFIT c(S) model; buffer (Tris-HCl vs PBS) and salt did not affect the oligomerization state
[2] = molecular target: DD-N-CAP1, human CAP1 helical folded domain with the coiled coil (a.a. 1-29) replaced by the dimerization domain 2L4HC2_23 (human); experiment: native MS; 100-300 pmole protein (as monomer), online buffer exchange to 200 mM ammonium acetate pH 6.8, Orbitrap EMR, deconvolution with UniDec
[3] = molecular target: DD-N-CAP2, human CAP2 helical folded domain with the coiled coil (a.a. 1-29) replaced by the dimerization domain 2L4HC2_23 (human); experiment: AUC; sedimentation velocity (SV-AUC), 50 µM protein, 20 °C, 50,000 rpm, absorbance at 280 nm, 20 mM Tris-HCl pH 8.0, SEDFIT c(S) model; buffer (Tris-HCl vs PBS) and salt did not affect the oligomerization state
[4] = molecular target: DD-N-CAP2, human CAP2 helical folded domain with the coiled coil (a.a. 1-29) replaced by the dimerization domain 2L4HC2_23 (human); experiment: native MS; 100-300 pmole protein (as monomer), online buffer exchange to 200 mM ammonium acetate pH 6.8, Orbitrap EMR, deconvolution with UniDec
[5] = molecular target: TD-N-CAP1, human CAP1 helical folded domain with the coiled coil (a.a. 1-29) replaced by the trimerization domain 2L6HC3_6 (human); experiment: AUC; sedimentation velocity (SV-AUC), 50 µM protein, 20 °C, 50,000 rpm, absorbance at 280 nm, 20 mM Tris-HCl pH 8.0, SEDFIT c(S) model; buffer (Tris-HCl vs PBS) and salt did not affect the oligomerization state
[6] = molecular target: TD-N-CAP1, human CAP1 helical folded domain with the coiled coil (a.a. 1-29) replaced by the trimerization domain 2L6HC3_6 (human); experiment: native MS; 100-300 pmole protein (as monomer), online buffer exchange to 200 mM ammonium acetate pH 6.8, Orbitrap EMR, deconvolution with UniDec
[7] = molecular target: TD-N-CAP2, human CAP2 helical folded domain with the coiled coil (a.a. 1-29) replaced by the trimerization domain 2L6HC3_6 (human); experiment: AUC; sedimentation velocity (SV-AUC), 50 µM protein, 20 °C, 50,000 rpm, absorbance at 280 nm, 20 mM Tris-HCl pH 8.0, SEDFIT c(S) model; buffer (Tris-HCl vs PBS) and salt did not affect the oligomerization state
[8] = molecular target: TD-N-CAP2, human CAP2 helical folded domain with the coiled coil (a.a. 1-29) replaced by the trimerization domain 2L6HC3_6 (human); experiment: native MS; 100-300 pmole protein (as monomer), online buffer exchange to 200 mM ammonium acetate pH 6.8, Orbitrap EMR, deconvolution with UniDec

## DD-N-CAP1, human CAP1 helical folded domain with the coiled coil (a.a. 1-29) replaced by the dimerization domain 2L4HC2_23
[1]
  stoichiometry N: 2
[2]
  stoichiometry N: 2

## DD-N-CAP2, human CAP2 helical folded domain with the coiled coil (a.a. 1-29) replaced by the dimerization domain 2L4HC2_23
[3]
  stoichiometry N: 2
[4]
  stoichiometry N: 2

## TD-N-CAP1, human CAP1 helical folded domain with the coiled coil (a.a. 1-29) replaced by the trimerization domain 2L6HC3_6
[5]
  stoichiometry N: 3
[6]
  stoichiometry N: 3

## TD-N-CAP2, human CAP2 helical folded domain with the coiled coil (a.a. 1-29) replaced by the trimerization domain 2L6HC3_6
[7]
  stoichiometry N: 3
[8]
  stoichiometry N: 3
